Measurements taken from patent publication US20140087995A1 (published 2014).
Numbered stars: 1 amine (or outer) side, 2 acyl side, 3 side chain; on linkers, the order of the positions; unused ones are H or OH. Bridge positions count the residues as written; N and C are the ends. Side chains are listed from the residue outwards. Ends that are not written are not given here. * marks the point of attachment. C20 diacid = O=C(O)CCCCCCCCCCCCCCCCCCC(=O)*; γGlu = O=C(O)[C@H](CCC(=O)[*:2])N[*:1]; AEEA = NCCOCCOCC(=O)O

B1: N^ε1-[2-[2-[2-[[2-[2-[2-[[(4S)-4-carboxy-4-(19-carboxynonadecanoylamino)butanoyl]amino]ethoxy]ethoxy]acetyl]amino]ethoxy]ethoxy]acetyl]-[Arg17,Pro21,Pro27,Arg34 … (peptide)
peptide: K([AEEA-AEEA-γGlu-C20 diacid])CNTATCATQRLANFLRHSSPNFGAIPSSTNVGRNTY-NH2
modifications: disulfide 2-7; N-terminus assumed
SMILES: CC[C@H](C)[C@H](NC(=O)[C@H](C)NC(=O)CNC(=O)[C@H](Cc1ccccc1)NC(=O)[C@H](CC(N)=O)NC(=O)[C@@H]1CCCN1C(=O)[C@H](CO)NC(=O)[C@H](CO)NC(=O)[C@H](Cc1c[nH]cn1)NC(=O)[C@H](CCCNC(=N)N)NC(=O)[C@H](CC(C)C)NC(=O)[C@H](Cc1ccccc1)NC(=O)[C@H](CC(N)=O)NC(=O)[C@H](C)NC(=O)[C@H](CC(C)C)NC(=O)[C@H](CCCNC(=N)N)NC(=O)[C@H](CCC(N)=O)NC(=O)[C@@H](NC(=O)[C@H](C)NC(=O)[C@@H]1CSSC[C@H](NC(=O)[C@@H](N)CCCCNC(=O)COCCOCCNC(=O)COCCOCCNC(=O)CC[C@H](NC(=O)CCCCCCCCCCCCCCCCCCC(=O)O)C(=O)O)C(=O)N[C@@H](CC(N)=O)C(=O)N[C@@H]([C@@H](C)O)C(=O)N[C@@H](C)C(=O)N[C@@H]([C@@H](C)O)C(=O)N1)[C@@H](C)O)C(=O)N1CCC[C@H]1C(=O)N[C@@H](CO)C(=O)N[C@@H](CO)C(=O)N[C@H](C(=O)N[C@@H](CC(N)=O)C(=O)N[C@H](C(=O)NCC(=O)N[C@@H](CCCNC(=N)N)C(=O)N[C@@H](CC(N)=O)C(=O)N[C@H](C(=O)N[C@@H](Cc1ccc(O)cc1)C(N)=O)[C@@H](C)O)C(C)C)[C@@H](C)O
notes: also called compound 95
B2: N^ε1-[(4S)-4-carboxy-4-(19-carboxynonadecanoylamino)butanoyl]-[Arg14,Arg17,Pro21,Pro27]-h-amylin (peptide)
peptide: K([γGlu-C20 diacid])CNTATCATQRLARFLRHSSPNFGAIPSSTNVGSNTY-NH2
modifications: disulfide 2-7; N-terminus assumed
SMILES: CC[C@H](C)[C@H](NC(=O)[C@H](C)NC(=O)CNC(=O)[C@H](Cc1ccccc1)NC(=O)[C@H](CC(N)=O)NC(=O)[C@@H]1CCCN1C(=O)[C@H](CO)NC(=O)[C@H](CO)NC(=O)[C@H](Cc1c[nH]cn1)NC(=O)[C@H](CCCNC(=N)N)NC(=O)[C@H](CC(C)C)NC(=O)[C@H](Cc1ccccc1)NC(=O)[C@H](CCCNC(=N)N)NC(=O)[C@H](C)NC(=O)[C@H](CC(C)C)NC(=O)[C@H](CCCNC(=N)N)NC(=O)[C@H](CCC(N)=O)NC(=O)[C@@H](NC(=O)[C@H](C)NC(=O)[C@@H]1CSSC[C@H](NC(=O)[C@@H](N)CCCCNC(=O)CC[C@H](NC(=O)CCCCCCCCCCCCCCCCCCC(=O)O)C(=O)O)C(=O)N[C@@H](CC(N)=O)C(=O)N[C@@H]([C@@H](C)O)C(=O)N[C@@H](C)C(=O)N[C@@H]([C@@H](C)O)C(=O)N1)[C@@H](C)O)C(=O)N1CCC[C@H]1C(=O)N[C@@H](CO)C(=O)N[C@@H](CO)C(=O)N[C@H](C(=O)N[C@@H](CC(N)=O)C(=O)N[C@H](C(=O)NCC(=O)N[C@@H](CO)C(=O)N[C@@H](CC(N)=O)C(=O)N[C@H](C(=O)N[C@@H](Cc1ccc(O)cc1)C(N)=O)[C@@H](C)O)C(C)C)[C@@H](C)O
notes: also called compound 83
B3: N^ε1-[(4S)-4-carboxy-4-[[(4S)-4-carboxy-4-(19-carboxynonadecanoylamino)butanoyl]amino]butanoyl]-[Glu14,Arg17,Pro21,Pro27,Arg35]-h-amylin (peptide)
peptide: K([γGlu-γGlu-C20 diacid])CNTATCATQRLAEFLRHSSPNFGAIPSSTNVGSRTY-NH2
modifications: disulfide 2-7; N-terminus assumed
SMILES: CC[C@H](C)[C@H](NC(=O)[C@H](C)NC(=O)CNC(=O)[C@H](Cc1ccccc1)NC(=O)[C@H](CC(N)=O)NC(=O)[C@@H]1CCCN1C(=O)[C@H](CO)NC(=O)[C@H](CO)NC(=O)[C@H](Cc1c[nH]cn1)NC(=O)[C@H](CCCNC(=N)N)NC(=O)[C@H](CC(C)C)NC(=O)[C@H](Cc1ccccc1)NC(=O)[C@H](CCC(=O)O)NC(=O)[C@H](C)NC(=O)[C@H](CC(C)C)NC(=O)[C@H](CCCNC(=N)N)NC(=O)[C@H](CCC(N)=O)NC(=O)[C@@H](NC(=O)[C@H](C)NC(=O)[C@@H]1CSSC[C@H](NC(=O)[C@@H](N)CCCCNC(=O)CC[C@H](NC(=O)CC[C@H](NC(=O)CCCCCCCCCCCCCCCCCCC(=O)O)C(=O)O)C(=O)O)C(=O)N[C@@H](CC(N)=O)C(=O)N[C@@H]([C@@H](C)O)C(=O)N[C@@H](C)C(=O)N[C@@H]([C@@H](C)O)C(=O)N1)[C@@H](C)O)C(=O)N1CCC[C@H]1C(=O)N[C@@H](CO)C(=O)N[C@@H](CO)C(=O)N[C@H](C(=O)N[C@@H](CC(N)=O)C(=O)N[C@H](C(=O)NCC(=O)N[C@@H](CO)C(=O)N[C@@H](CCCNC(=N)N)C(=O)N[C@H](C(=O)N[C@@H](Cc1ccc(O)cc1)C(N)=O)[C@@H](C)O)C(C)C)[C@@H](C)O
notes: also called compound 89
B4: N^ε1-[(4S)-4-carboxy-4-(19-carboxynonadecanoylamino)butanoyl]-[His14,Arg17,Pro21,Pro27,Arg34]-h-amylin (peptide)
peptide: K([γGlu-C20 diacid])CNTATCATQRLAHFLRHSSPNFGAIPSSTNVGRNTY-NH2
modifications: disulfide 2-7; N-terminus assumed
SMILES: CC[C@H](C)[C@H](NC(=O)[C@H](C)NC(=O)CNC(=O)[C@H](Cc1ccccc1)NC(=O)[C@H](CC(N)=O)NC(=O)[C@@H]1CCCN1C(=O)[C@H](CO)NC(=O)[C@H](CO)NC(=O)[C@H](Cc1c[nH]cn1)NC(=O)[C@H](CCCNC(=N)N)NC(=O)[C@H](CC(C)C)NC(=O)[C@H](Cc1ccccc1)NC(=O)[C@H](Cc1c[nH]cn1)NC(=O)[C@H](C)NC(=O)[C@H](CC(C)C)NC(=O)[C@H](CCCNC(=N)N)NC(=O)[C@H](CCC(N)=O)NC(=O)[C@@H](NC(=O)[C@H](C)NC(=O)[C@@H]1CSSC[C@H](NC(=O)[C@@H](N)CCCCNC(=O)CC[C@H](NC(=O)CCCCCCCCCCCCCCCCCCC(=O)O)C(=O)O)C(=O)N[C@@H](CC(N)=O)C(=O)N[C@@H]([C@@H](C)O)C(=O)N[C@@H](C)C(=O)N[C@@H]([C@@H](C)O)C(=O)N1)[C@@H](C)O)C(=O)N1CCC[C@H]1C(=O)N[C@@H](CO)C(=O)N[C@@H](CO)C(=O)N[C@H](C(=O)N[C@@H](CC(N)=O)C(=O)N[C@H](C(=O)NCC(=O)N[C@@H](CCCNC(=N)N)C(=O)N[C@@H](CC(N)=O)C(=O)N[C@H](C(=O)N[C@@H](Cc1ccc(O)cc1)C(N)=O)[C@@H](C)O)C(C)C)[C@@H](C)O
notes: also called compound 85

Each binder was assayed against T1, human calcitonin receptor (human, UniProt P30988 25-474) (assay: ratio of hCTR IC50 to hAmylin-R IC50 (reference: human amylin receptor)).
T1 construct: whole, on cells; Used as cell membranes; also called hCTR; hCT
T1 sequence (looked up): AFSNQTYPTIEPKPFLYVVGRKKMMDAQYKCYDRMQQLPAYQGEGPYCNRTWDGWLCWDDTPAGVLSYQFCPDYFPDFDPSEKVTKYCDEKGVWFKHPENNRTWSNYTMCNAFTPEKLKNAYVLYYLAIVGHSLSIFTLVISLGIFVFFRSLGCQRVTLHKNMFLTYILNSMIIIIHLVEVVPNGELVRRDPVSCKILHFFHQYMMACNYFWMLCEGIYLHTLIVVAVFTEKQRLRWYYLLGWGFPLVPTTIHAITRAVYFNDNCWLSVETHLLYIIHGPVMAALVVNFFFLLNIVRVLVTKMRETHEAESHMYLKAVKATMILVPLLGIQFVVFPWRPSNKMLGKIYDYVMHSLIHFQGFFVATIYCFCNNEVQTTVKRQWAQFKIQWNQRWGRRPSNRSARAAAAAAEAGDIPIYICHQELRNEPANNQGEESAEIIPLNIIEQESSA
Procedure, shortened: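 Scintillation proximity competition binding on cell membranes at 35 ng/μL with SPA beads, in 50 mM Hepes pH 7.4, 1 mM CaCl2, 5 mM MgCl₂, 0.1% OA, 0.02% Tween20. Incubated 120 min at 25° C with shaking. IC₅₀ from one-site competition fit.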

Ratio hCT/hAmylin binding | Binder
63.4 | B1
146 | B2
28 | B3
91.8 | B4

The binders below were run against T1, human calcitonin receptor (assay: SPA competition on BHK cell membranes, 125I-calcitonin as radioligand (Assay VII)).
Procedure, shortened: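 BHK hCTR membranes 35 ng/μL + SPA beads 0.05 mg/well; buffer 50 mM Hepes pH 7.4, 1 mM CaCl2, 5 mM MgCl₂, 0.1% OA, 0.02% Tween20. 120 min, 25° C., shaking. Scintillation count; IC50 by one-site binding competition.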

IC50 | Binder
61.3 nM | B1
137 nM | B2
32.5 nM | B3
80.4 nM | B4

Each binder was assayed against T2, human amylin receptor (amylin 3(a) receptor: human calcitonin receptor with RAMP-3) (human, UniProt P30988 25-474; O60896 24-148) (assay: SPA competition on BHK cell membranes, 125I-rat amylin as radioligand (Assay V)).
T2 construct: whole, on cells; Used as cell membranes of the Amylin 3(a)/CRE-luc BHK cells; the species of RAMP-3 is only implied by the name human amylin receptor; also called hAmylin-R; hAmylinR
T2 sequence (looked up) 1: T1 sequence (looked up)
T2 sequence (looked up) 2: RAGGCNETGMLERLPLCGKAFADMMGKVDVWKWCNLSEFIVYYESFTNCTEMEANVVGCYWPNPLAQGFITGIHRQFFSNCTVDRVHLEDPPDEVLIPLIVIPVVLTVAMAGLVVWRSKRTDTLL
Description: The binding assay was performed using scintillation proximity assay (SPA) beads (RPNQ0001) from PerkinElmer and cell membranes from the Amylin 3(a)/CRE-luc cells (as described in Assay (II)) were used. Membranes were prepared in the following way; the cells were rinsed with PBS and incubated with Versene for approximately 5 min before harvesting. The cells were flushed with PBS and the cell-suspension was centrifuged for 5 min at 1000 rpm. Cells were homogenized (ultrathurrax) in a buffer containing 20 mM Na-HEPES and 10 mM EDTA (pH 7.4) and centrifuged at 20.000 rpm for 15 min. The resulting pellet was resuspended, homogenized and centrifuged (20.000 rpm, 15 min) in a buffer containing 20 mM Na-HEPES and 0.1 mM EDTA (pH 7.4, buffer 2). The resulting pellet was resuspended in buffer 2 and protein concentration was measured (BCA protein Assay, Pierce). The homogenate was kept cold during the whole procedure. The membranes were kept at −80° C. until use. The assay was performed in a 384 well Optiplate (PerkinElmer) in a total volume of 40 ul. Membranes were mixed with SPA beads. Final concentration of membranes 35 ng/μL final and SPA beads was 0.05 mg/well. Test-compounds were dissolved in DMSO and further diluted in assay buffer (50 mM Hepes, pH 7.4, 1 mM CaCl2, 5 mM MgCl₂, 0.1% OA and 0.02% Tween20). […] The final mixture was incubated with shaking at 400 rpm for 120 min at 25° C. prior to centrifugation (1500 rpm, 10 min). Samples were analyzed on TopCounter™ (Packard). The IC₅₀ was calculated using (one site binding competition analysis) GraphPad Prism5 as a measure of receptor affinity.

IC50 | Binder
0.967 nM | B1
0.939 nM | B2
1.16 nM | B3
0.876 nM | B4
